Measurements from PMC5766984, “Correlation of structure, function and protein dynamics in GH7 cellobiohydrolases from Trichoderma atroviride, T. reesei and T. harzianum” (Biotechnology for Biofuels, 2018).

Experiments:
[1] = biological target: T1, ThaCel7A (Trichoderma harzianum, UniProt Q9P8P3); assay: competitive (product) inhibition of pNP-Lac hydrolysis, pH […] °C; type: biochemical
T1 construct: gene cbh1
T1 sequence (Q9P8P3 18-443): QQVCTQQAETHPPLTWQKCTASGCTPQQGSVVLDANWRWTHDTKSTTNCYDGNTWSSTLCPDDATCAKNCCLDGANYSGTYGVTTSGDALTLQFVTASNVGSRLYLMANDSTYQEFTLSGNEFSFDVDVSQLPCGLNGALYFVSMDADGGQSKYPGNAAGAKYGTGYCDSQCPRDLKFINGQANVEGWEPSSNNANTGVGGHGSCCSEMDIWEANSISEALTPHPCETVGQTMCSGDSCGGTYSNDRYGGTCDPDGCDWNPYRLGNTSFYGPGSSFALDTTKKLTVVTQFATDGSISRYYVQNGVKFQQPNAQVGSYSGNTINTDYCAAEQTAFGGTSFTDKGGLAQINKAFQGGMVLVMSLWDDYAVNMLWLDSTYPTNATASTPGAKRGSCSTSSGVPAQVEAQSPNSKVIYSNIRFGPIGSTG

[2] = biological target: T2, TreCel7A (Trichoderma reesei, UniProt P62694); assay: as above; type: biochemical
T2 construct: gene cbh1
T2 sequence (P62694 18-451): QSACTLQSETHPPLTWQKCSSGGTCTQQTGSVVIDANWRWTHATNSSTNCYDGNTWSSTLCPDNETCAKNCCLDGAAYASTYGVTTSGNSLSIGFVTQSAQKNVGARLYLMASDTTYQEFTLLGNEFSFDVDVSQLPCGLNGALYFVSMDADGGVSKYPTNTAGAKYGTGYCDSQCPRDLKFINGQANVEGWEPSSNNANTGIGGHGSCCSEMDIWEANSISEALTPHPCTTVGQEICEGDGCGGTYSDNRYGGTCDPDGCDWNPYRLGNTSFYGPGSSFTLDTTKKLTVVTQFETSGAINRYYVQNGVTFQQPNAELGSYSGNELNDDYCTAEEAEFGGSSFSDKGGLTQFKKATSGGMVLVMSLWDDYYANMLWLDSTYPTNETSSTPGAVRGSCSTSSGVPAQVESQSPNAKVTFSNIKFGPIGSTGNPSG

[3] = biological target: T3, TatCel7A (Trichoderma atroviride, UniProt G9NTY1); assay: as above; type: biochemical
T3 construct: gene TRIATDRAFT_88458

[4] = substrate: [H][C@@]1(O[C@H]2[C@H](O)[C@@H](O)[C@H](Oc3ccc([N+](=O)[O-])cc3)O[C@@H]2CO)O[C@H](CO)[C@H](O)[C@H](O)[C@H]1O; assay: purified protein; type: biochemical, Trichoderma atroviride; settings: subsites (−[…]/−[…]/+[…]) where pNP-Lac should bind for hydrolysis; pH 4.5; 30.0 °C
[5] = substrate: [H][C@@]1(O[C@H]2[C@H](O)[C@@H](O)[C@H](Oc3ccc([N+](=O)[O-])cc3)O[C@@H]2CO)O[C@H](CO)[C@H](O)[C@H](O)[C@H]1O; assay: purified protein; type: biochemical, Trichoderma reesei; settings: subsites (−[…]/−[…]/+[…]) where pNP-Lac should bind for hydrolysis; pH 4.5; 30.0 °C
[6] = substrate: [H][C@@]1(O[C@H]2[C@H](O)[C@@H](O)[C@H](Oc3ccc([N+](=O)[O-])cc3)O[C@@H]2CO)O[C@H](CO)[C@H](O)[C@H](O)[C@H]1O; assay: purified protein; type: biochemical, Trichoderma harzianum; settings: subsites (−[…]/−[…]/+[…]) where pNP-Lac should bind for hydrolysis; pH 4.5; 30.0 °C

## OC[C@H]1O[C@@H](O[C@H]2[C@H](O)[C@@H](O)C(O)O[C@@H]2CO)[C@H](O)[C@@H](O)[C@@H]1O (stereo partly drawn) [cellobiose]
[1]
  Ki: 49 µM
[2]
  Ki: 24 µM
[3]
  Ki: 72 µM

B1: TatCel7A (Trichoderma atroviride IMI 206040) (protein)
chain: QQVCTTQAETHPALSWSKCTSGGSCTTQAGKVVLDANWRWTHAYPSGNNCYNGNTWDATLCPDDATCAKNCCLEGADYSGTYGVTTSGNQLTIDFVTQSANKNVGARLYLMASDTAYEEFTLLNNEFSFDVDVSALPCGLNGALYFVSMDADGGASKYPTNLAGAKYGTGYCDSQCPRDLKFISGQANVEGWQPSSNNANTGIGGHGSCCSEMDIWEANSISQALTPHPCETVGQVTCSGDDCGGTYSNNRYGGTCDPDGCDWNPYRLGNHTFYGPGSGFTVDTTKKITVVTQFSSTGINRYYVQNGVKFVQPNASGLSGYTGNTINSAYCSAEQTAFGGTSFTDKGGLTQMNKALSGGMVLVLSLWDDYAANMLWLDSTYPTNDTASTPGAARGTCSTSSGVPATVEQQSPNSKVVFSNIKFGPIGSTG
[4]
  Km: 1000 µM
  kcat: 0.019 s⁻¹
  kcat/Km: 19 M⁻¹ s⁻¹

B2: TreCel7A (Trichoderma reesei) (protein)
chain: QSACTLQSETHPPLTWQKCSSGGTCTQQTGSVVIDANWRWTHATNSSTNCYDGNTWSSTLCPDNETCAKNCCLDGAAYASTYGVTTSGNSLSIGFVTQSAQKNVGARLYLMASDTTYQEFTLLGNEFSFDVDVSQLPCGLNGALYFVSMDADGGVSKYPTNTAGAKYGTGYCDSQCPRDLKFINGQANVEGWEPSSNNANTGIGGHGSCCSEMDIWEANSISEALTPHPCTTVGQEICEGDGCGGTYSDNRYGGTCDPDGCDWNPYRLGNTSFYGPGSSFTLDTTKKLTVVTQFETSGAINRYYVQNGVTFQQPNAELGSYSGNELNDDYCTAEEAEFGGSSFSDKGGLTQFKKATSGGMVLVMSLWDDYYANMLWLDSTYPTNETSSTPGAVRGSCSTSSGVPAQVESQSPNAKVTFSNIKFGPIGSTGNPSG
[5]
  Km: 720 µM
  kcat: 0.057 s⁻¹
  kcat/Km: 79 M⁻¹ s⁻¹

B3: ThaCel7A (Trichoderma harzianum) (protein)
chain: QQVCTQQAETHPPLTWQKCTASGCTPQQGSVVLDANWRWTHDTKSTTNCYDGNTWSSTLCPDDATCAKNCCLDGANYSGTYGVTTSGDALTLQFVTASNVGSRLYLMANDSTYQEFTLSGNEFSFDVDVSQLPCGLNGALYFVSMDADGGQSKYPGNAAGAKYGTGYCDSQCPRDLKFINGQANVEGWEPSSNNANTGVGGHGSCCSEMDIWEANSISEALTPHPCETVGQTMCSGDSCGGTYSNDRYGGTCDPDGCDWNPYRLGNTSFYGPGSSFALDTTKKLTVVTQFATDGSISRYYVQNGVKFQQPNAQVGSYSGNTINTDYCAAEQTAFGGTSFTDKGGLAQINKAFQGGMVLVMSLWDDYAVNMLWLDSTYPTNATASTPGAKRGSCSTSSGVPAQVEAQSPNSKVIYSNIRFGPIGSTG
[6]
  Km: 900 µM
  kcat: 0.067 s⁻¹
  kcat/Km: 75 M⁻¹ s⁻¹
